Publication doi:10.1101/301622 (bioRxiv, 2018)

Target: ΔCTT, a variant of FtsZ that lacks the CTT (B. subtilis)

GTPase activity (coupled assay, 5 μM protein, 1 mM GTP), relative to WT FtsZ: 3 fold
Substance: ΔCTT, a variant of FtsZ that lacks the CTT (domain or fragment)
